Experiment [1] deals with VEGFR2, c-Met, IGF1R, and PDGFRβ. Particulars: Lee et al., Sci Rep. 2014; cited from earlier work.
Experiment [2] concerns the target T1, α5 integrin subunit (Homo sapiens, UniProt P08648).
T1 construct: host or cells: human dermal microvascular endothelial cells (MEC)
Kind of experiment: Triton X-100 fractionation of MEC lysates, α5 integrin. The format is cell-based. As for the experimental part:
α5β1-integrin heterodimer and αvβ3-integrin heterodimer are primary targets of AXT107.
The isolation of Triton X-100 soluble and insoluble fractions was performed using modifications to previously-described procedures (see, e.g., Lampugnani et al., J Cell Biol. 1995; 129(1):203-217). FN1-coated six-well plates were seeded with 2.5×10^6 cells and cultured for forty-eight hours, as described above. The cultures were then serum starved for ninety minutes in EBM-2 media, treated with 100 μM AXT107 or DMSO vehicle, and fifteen minutes with 1 mM sodium vanadate. […] The plates were then transferred to ice and washed twice with cold dPBS containing Ca^2+ and Mg^2+ and twice with EBM-2 media. The media was then removed and the cells incubated for thirty minutes on ice, at 4° C. in 200 μl of Triton X-100 extraction buffer (10 mM Tris-HCl, pH 7.5; 150 mM NaCl; 2 mM CaCl2); 1% NP-40; 1% […]; and a protease inhibitor cocktail (Cell Signaling, Cat#: 5871)) with occasional agitation. The extraction buffer was gently collected and centrifuged at 12,000×g for five minutes. The supernatant was then mixed with 125 μl of 3×Blue Loading Dye, boiled, and saved as the Triton X-100 soluble fraction at −20° C. […] Samples were analyzed by western blot as described above. […]

Experiment [3] has as its target T2, β1 integrin subunit (Homo sapiens, UniProt P05556).
T2 construct: host or cells: human dermal microvascular endothelial cells (MEC)
Kind of experiment: Triton X-100 fractionation of MEC lysates, β1 integrin. The format is cell-based. The text has this:
Since β1 integrin is the only known β subunit to heterodimerize with the α5 integrin subunit, it unlikely that the as subunit, that was observed here in the insoluble fractions, originated from a heterodimeric integrin pair other than α5β1. Unfortunately, high background impaired the visualization of α5 integrin alone by immunofluorescence. Given the unexpected discovery that AXT107 dissociates the integrin heterodimer, this discovery was confirmed in several independent assays. […] Thus, interactions between Tie2 and heterodimerized α5β1 integrin appear to retain Tie2 at the EC-ECM interface.
The isolation of Triton X-100 soluble and insoluble fractions was performed using modifications to previously-described procedures (see, e.g., Lampugnani et al., J Cell Biol. 1995; 129(1):203-217). FN1-coated six-well plates were seeded with 2.5×10^6 cells and cultured for forty-eight hours, as described above. The cultures were then serum starved for ninety minutes in EBM-2 media, treated with 100 μM AXT107 or DMSO vehicle, and fifteen minutes with 1 mM sodium vanadate. The cells were then stimulated with either 100 ng/ml VEGFA, 400 ng/ml Ang2, or PBS for fifteen minutes. The plates were then transferred to ice and washed twice with cold dPBS containing Ca^2+ and Mg^2+ and twice with EBM-2 media. […] Samples were analyzed by western blot as described above. […]

T1 sequence (P08648 42-894 limits assumed): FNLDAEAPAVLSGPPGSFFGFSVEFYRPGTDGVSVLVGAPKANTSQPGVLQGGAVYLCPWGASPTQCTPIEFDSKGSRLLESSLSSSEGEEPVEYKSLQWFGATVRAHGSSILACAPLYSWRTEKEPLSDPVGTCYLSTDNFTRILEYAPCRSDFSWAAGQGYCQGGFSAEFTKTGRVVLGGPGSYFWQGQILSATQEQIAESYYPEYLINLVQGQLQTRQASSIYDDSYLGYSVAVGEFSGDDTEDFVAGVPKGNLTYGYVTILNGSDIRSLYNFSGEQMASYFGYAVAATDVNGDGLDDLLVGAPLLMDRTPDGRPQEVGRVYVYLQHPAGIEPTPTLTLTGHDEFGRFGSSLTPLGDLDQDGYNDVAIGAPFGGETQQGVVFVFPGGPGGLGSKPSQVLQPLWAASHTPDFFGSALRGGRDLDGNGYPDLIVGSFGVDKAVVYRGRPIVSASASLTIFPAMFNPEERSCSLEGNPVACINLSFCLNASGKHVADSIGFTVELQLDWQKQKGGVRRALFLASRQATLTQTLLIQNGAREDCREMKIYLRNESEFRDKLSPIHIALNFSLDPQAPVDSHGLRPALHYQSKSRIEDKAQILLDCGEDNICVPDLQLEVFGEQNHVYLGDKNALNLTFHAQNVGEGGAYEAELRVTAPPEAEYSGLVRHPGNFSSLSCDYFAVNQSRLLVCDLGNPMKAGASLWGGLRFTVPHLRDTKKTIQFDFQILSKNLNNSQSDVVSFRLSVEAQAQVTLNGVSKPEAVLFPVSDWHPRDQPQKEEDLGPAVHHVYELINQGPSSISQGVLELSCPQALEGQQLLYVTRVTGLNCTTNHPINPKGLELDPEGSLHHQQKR
T1 sequence (P08648 895-1049 limits assumed): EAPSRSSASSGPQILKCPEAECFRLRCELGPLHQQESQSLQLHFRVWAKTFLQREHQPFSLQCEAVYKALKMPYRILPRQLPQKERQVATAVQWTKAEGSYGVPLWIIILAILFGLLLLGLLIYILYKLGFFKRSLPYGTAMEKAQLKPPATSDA
T2 sequence (P05556 21-798): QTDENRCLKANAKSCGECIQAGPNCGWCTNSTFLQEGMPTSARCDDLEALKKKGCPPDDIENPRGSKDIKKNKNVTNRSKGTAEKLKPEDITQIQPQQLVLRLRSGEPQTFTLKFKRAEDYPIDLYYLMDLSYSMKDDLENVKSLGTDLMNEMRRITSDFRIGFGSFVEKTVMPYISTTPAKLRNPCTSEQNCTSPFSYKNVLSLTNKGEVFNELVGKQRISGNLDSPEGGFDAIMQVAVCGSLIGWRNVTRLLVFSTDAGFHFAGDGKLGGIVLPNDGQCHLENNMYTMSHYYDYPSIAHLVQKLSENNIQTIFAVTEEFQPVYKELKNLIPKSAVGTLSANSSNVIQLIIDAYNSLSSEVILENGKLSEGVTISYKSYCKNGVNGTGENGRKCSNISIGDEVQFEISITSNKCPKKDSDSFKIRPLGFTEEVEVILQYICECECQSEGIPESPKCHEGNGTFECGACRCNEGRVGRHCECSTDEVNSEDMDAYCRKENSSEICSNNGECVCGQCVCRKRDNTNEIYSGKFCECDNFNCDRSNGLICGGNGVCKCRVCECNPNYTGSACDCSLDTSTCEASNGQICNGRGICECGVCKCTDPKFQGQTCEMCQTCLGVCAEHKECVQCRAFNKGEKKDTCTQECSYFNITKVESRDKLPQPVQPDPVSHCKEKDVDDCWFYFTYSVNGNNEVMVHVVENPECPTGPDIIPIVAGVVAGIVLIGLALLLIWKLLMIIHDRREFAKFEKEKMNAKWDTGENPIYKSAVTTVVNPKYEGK

In the case of LRRFSTAPFAFIDINDVINF [AXT107], the “receptor phosphorylation and downstream signals of RTKs” value in experiment [1] is reported as “significantly decreases”. In experiment [2] (100 μM AXT107), the “α5 integrin subunit location in fractionated lysates” value is reported as “relocated to the insoluble fraction”. Besides, the “α5 integrin after immunoprecipitation of Tie2” value in experiment [2] (Triton X-100 fractionated lysates, with 200 ng/ml Ang2 or no growth factor) is on record as “observed in the peptide-treated, insoluble fraction”. The “β1 integrin subunit in insoluble fraction” value in experiment [3] (100 μM AXT107, long exposure times, high antibody concentrations) is recorded as “never observed in the insoluble fraction”. Also, the “interactions of immunoprecipitated α5 integrin with β1” value in experiment [3] (Triton X-100 fractionated lysates after AXT107 treatment, data not shown) is on record as “only found in the soluble fractions”.

Values taken from patent publication US20190225670A1, “COMPOUNDS AND METHODS FOR ACTIVATING TIE2 SIGNALING” (ASCLEPIX THERAPEUTICS, LLC, priority 2016, published 2019).
